Blank lines part the entries; values can stand above or below the binder they belong to.
Columns and labels:
recombinant human IL-17 [1] = target: T1, recombinant human IL-17 (human, UniProt Q16552 20-155, limits assumed); assay: cell-based or functional assay
T1 sequence (looked up): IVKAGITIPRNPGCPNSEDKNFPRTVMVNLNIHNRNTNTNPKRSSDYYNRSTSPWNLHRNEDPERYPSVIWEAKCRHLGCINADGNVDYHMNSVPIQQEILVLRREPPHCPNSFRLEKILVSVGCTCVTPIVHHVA

monkey recombinant IL-17 = monkey recombinant IL-17 (monkey); assay: cell-based or functional assay
recombinant human IL-17 [2] = target: T1, recombinant human IL-17; assay: BIAcore 3000; mean of the five replicates of Table 1; mean of the replicates of Table 1; CDP435 captured by anti-human IgG F(ab)2, IL-17 in solution
Description: The assay format used CDP435 captured by anti-human IgG F(ab)₂ with a titration of recombinant human IL-17 in the solution phase. BIA (Biamolecular Interaction Analysis) was performed using a BIAcore 3000 (BIAcore AB). Affinipure F(ab′)₂ Fragment goat anti-human IgG, F(ab)₂ fragment specific (Jackson ImmunoResearch) was immobilised on a CM5 Sensor Chip via amine coupling chemistry to a capture level of ≈9000 response units (RUs). HBS-EP buffer (10 mM HEPES pH 7.4, 0.15 M NaCl, 3 mM EDTA, 0.005% Surfactant P20, BIAcore AB) was used as the running buffer with a flow rate of 10 μl/min. An injection of CDP435 was made at 10 μl/min in order to obtain around 200 Ru of Fab captured by the immobilised anti-human IgG-F(ab)₂ to the surface. Human IL-17 was titrated over the captured antibody Fab fragment at various concentrations at a flow rate of 30 μl/min. The surface was regenerated by a 2×10 μl injection of 40 mM HCl, followed by a 5 μl injection of 5 mM NaOH at a flow rate of 10 μl/min.
Background subtraction binding curves were analysed using the BIAevaluation software (version 3.2) following standard procedures. Kinetic parameters were determined from the fitting algorithm. The affinity was measured at human IL-17 concentrations at or below 12.5 nM.

recombinant human IL-17 [3] = target: T1, recombinant human IL-17; assay: cell-based or functional assay; remark: listed apart in the source

- IC50, human IL-17 (25 ng/ml) induced IL-6 production from Hela cells (recombinant human IL-17 [1]): 0.158 µg/mL
- IC50, monkey IL-17 (25 ng/ml) induced IL-6 production from Hela cells (monkey recombinant IL-17): 0.147 µg/mL
- Kd (recombinant human IL-17 [2]): 0.224 nM
B1: CDP435 (PEGylated Fab fragment, gH11gL3 graft, 2 x 20 kDa PEG) (Fab, V domains shown)
VH: EVQLVESGGGVVQPGGSLRLSCAVSGFSLTTYGVHWVRQAPGKGLEWVAVIWSDGYTTYNSALKSRFTISRDNSKNTVYLQMNSLRAEDTAVYYCARNDGDYFYSMDYWGQGTLVTVSS
VL: DVQMTQSPSSLSASVGDRVTITCRSSQSLVHSNGNTYLHWYQQKPGKAPKLLIYKVSNRFSGVPSRFSGSGSGTDFTLTISSLQPEDFATYYCSQSTHVPTFGQGTKVEIKR
modifications: 20 kDa PEG-maleimide on the interchain cysteine of CL (position 214 by Kabat numbering, 218 by sequential numbering); 20 kDa PEG-maleimide on the interchain cysteine of CH1 (cys-233 by Kabat numbering, cys-222 by sequential numbering; C-terminal residue)
notes: no interchain disulphide after PEGylation

- IC50 (read off the curve) (recombinant human IL-17 [3]): ~0.2 µg/mL
B2: antibody Fab fragment of CDP435 (not PEGylated) (Fab, V domains shown)
VH: B1 VH
VL: B1 VL

- IC50 (read off the curve) (recombinant human IL-17 [3]): ~0.2 µg/mL
B3: murine monoclonal antibody IL-17F4.100 (antibody, V domains shown)
VH: QVQLKESGPGLVAPSQSLSITCTVSGFSLTTYGVHWIRQPPGKGLEWLVVIWSDGYTTYNSALKSRLSITKDNSKSQVFLKMNSLQTDDTAMYYCARNDGDYFYSMDYWGQGTSVTVSS
VL: DVVMTQTPLSLPVSLGDQASFSCRSSQSLVHSNGNTYLHWYLQKPGQSPKLLIYKVSNRFSGVPDRFSGSGSGTDFTLKISRVEAEDLGVYFCSQSTHVPTFGGGTKLEIKR

— US20090117126A1 (UCB, published 2009)
